One molecule from US20220332804A1 (CSL INNOVATION, published 2022) can be followed below.

Common to all, as to assay: SPR, antibody captured, C2 as analyte;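 note: biacore SPR at 37 °C, anti-C2 mAbs captured via goat anti-human IgG on CM5 chips, double-referenced sensorgrams fit to a 1:1 kinetic or steady-state model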
In assay [1] the target is T1, human C2 K430A (human, UniProt P06681 21-752).
T1 sequence: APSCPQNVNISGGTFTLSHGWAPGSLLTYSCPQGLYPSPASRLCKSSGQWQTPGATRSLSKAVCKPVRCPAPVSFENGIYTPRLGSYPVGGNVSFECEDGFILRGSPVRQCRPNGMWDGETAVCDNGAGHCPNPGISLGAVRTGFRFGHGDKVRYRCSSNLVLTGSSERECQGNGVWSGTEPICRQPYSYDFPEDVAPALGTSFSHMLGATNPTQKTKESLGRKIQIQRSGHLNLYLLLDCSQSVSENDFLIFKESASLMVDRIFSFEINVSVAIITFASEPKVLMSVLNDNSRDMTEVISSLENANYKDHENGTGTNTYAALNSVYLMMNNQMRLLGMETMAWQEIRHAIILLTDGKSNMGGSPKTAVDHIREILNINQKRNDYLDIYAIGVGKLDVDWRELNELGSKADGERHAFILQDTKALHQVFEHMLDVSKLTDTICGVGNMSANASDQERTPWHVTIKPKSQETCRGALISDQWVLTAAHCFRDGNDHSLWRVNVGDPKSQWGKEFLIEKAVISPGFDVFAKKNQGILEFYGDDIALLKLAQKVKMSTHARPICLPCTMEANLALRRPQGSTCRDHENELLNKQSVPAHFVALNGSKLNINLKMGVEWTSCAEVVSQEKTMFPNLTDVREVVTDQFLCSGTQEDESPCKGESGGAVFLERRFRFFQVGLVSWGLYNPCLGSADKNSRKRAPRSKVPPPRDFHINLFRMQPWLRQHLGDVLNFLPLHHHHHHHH

For assay [2], the target named is T2, human C2 R434A (human, UniProt P06681 21-752).
T2 sequence: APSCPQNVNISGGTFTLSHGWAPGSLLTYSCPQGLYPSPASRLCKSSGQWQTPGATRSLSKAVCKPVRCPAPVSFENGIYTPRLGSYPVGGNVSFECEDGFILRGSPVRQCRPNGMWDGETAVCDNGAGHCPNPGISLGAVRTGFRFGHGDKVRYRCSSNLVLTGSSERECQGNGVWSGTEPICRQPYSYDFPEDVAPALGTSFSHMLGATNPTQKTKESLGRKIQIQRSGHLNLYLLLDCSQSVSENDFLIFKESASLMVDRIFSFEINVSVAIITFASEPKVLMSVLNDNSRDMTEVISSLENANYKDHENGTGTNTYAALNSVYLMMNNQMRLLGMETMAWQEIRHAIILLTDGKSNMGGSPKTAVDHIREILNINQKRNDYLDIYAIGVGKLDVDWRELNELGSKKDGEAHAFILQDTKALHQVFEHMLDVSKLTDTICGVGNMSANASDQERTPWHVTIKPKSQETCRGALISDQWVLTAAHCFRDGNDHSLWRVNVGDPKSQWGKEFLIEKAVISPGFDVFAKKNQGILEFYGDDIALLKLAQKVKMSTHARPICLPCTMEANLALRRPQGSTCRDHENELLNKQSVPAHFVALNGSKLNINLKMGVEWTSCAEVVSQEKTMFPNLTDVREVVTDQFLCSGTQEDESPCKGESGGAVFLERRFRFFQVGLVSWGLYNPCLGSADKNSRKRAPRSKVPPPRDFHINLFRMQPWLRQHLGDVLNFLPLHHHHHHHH

Assay [3] deals with T3, human C2 D269A (human, UniProt P06681 21-752).
T3 sequence: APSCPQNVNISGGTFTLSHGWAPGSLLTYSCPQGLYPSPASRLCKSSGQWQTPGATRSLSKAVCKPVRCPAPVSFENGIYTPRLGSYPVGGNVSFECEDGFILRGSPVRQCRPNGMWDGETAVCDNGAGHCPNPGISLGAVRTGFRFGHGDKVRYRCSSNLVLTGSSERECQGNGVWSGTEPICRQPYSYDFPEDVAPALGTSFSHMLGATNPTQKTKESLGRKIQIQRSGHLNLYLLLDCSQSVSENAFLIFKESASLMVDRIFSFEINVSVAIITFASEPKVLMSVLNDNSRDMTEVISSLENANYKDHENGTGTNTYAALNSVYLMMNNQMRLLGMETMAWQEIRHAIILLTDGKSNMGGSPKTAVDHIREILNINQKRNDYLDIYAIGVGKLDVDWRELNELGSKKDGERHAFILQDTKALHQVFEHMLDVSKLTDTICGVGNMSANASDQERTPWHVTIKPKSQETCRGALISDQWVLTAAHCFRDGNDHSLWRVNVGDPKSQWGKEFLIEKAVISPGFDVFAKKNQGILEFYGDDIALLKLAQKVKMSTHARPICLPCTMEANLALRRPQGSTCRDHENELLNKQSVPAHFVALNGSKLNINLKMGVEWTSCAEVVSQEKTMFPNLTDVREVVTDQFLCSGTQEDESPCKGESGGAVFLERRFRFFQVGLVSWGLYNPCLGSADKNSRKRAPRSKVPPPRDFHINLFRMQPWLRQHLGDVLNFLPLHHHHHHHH

The target in assay [4] is T4, human C2 S708A (human, UniProt P06681 21-752).
T4 sequence: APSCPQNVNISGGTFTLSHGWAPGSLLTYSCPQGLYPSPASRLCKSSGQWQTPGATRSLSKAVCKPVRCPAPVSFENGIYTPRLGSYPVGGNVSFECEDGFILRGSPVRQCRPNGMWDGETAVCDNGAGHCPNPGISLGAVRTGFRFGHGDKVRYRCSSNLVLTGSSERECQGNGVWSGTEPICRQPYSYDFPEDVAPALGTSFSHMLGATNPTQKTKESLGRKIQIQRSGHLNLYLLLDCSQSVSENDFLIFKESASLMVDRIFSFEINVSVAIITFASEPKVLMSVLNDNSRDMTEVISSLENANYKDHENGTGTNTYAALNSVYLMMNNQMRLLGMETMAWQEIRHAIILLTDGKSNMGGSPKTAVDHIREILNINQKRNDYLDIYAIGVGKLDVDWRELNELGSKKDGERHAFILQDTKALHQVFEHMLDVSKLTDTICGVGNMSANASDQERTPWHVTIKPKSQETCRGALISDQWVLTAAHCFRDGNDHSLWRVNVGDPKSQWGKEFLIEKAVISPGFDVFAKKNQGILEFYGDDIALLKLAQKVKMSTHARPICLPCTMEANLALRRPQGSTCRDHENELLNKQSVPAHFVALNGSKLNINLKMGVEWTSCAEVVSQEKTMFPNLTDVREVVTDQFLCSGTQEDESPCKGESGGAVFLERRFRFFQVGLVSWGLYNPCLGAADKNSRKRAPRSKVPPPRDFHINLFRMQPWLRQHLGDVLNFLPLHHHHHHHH

B1: RF16-226 (antibody, human IgG4 S228P, lambda)
heavy: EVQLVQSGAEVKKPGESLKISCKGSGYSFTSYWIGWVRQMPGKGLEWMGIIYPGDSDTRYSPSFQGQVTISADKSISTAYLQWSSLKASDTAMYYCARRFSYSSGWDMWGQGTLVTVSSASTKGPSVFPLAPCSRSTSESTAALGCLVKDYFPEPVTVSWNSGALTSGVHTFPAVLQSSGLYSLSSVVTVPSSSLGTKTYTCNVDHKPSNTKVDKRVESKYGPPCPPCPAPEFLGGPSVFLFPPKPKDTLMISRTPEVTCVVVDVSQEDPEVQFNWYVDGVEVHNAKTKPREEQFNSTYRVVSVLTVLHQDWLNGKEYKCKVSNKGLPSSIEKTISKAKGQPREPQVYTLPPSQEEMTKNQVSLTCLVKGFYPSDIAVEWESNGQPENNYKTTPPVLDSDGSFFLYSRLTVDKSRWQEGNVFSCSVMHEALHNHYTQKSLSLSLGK
light: SYELTQPPSVSVSPGQTARITCSGDALTSKYVAWYQQKSGLAPLLVIYEDTRRPSGIPAKFSGSSSGSVATLTISGAHGDDEADYYCYSTDASGHQRVFGGGTKLTVLSQPKAAPSVTLFPPSSEELQANKATLVCLISDFYPGAVTVAWKADGSPVKAGVETTKPSKQSNNKYAASSYLSLTPEQWKSHRSYSCQVTHEGSTVEKTVAPTECS
notes: pH-dependent anti-C2 antibody from a phage display library; also called WT
Take B1: the dissociation constant (Kd) in assay [1] was 62 nM; in assay [2], 142 nM; in assay [3] it was 13.1 nM; in assay [4], 21.1 nM.
